Source: patent US7144731B2, “SCF antibody compositions and methods of using the same” (Amgen Inc., priority 1989, dated 2006)

Experiments:
[1] = system: bone marrow from patients with DBA; assay: BFU-E culture of Diamond-Blackfan anemia marrow; assay type: cell-based, human
Excerpt: (§1) Another bone marrow failure disorder which is responsive to SCF is Diamond-Blackfan anemia (DBA) or congenital pure red cell aplasia. This congenital abnormality results in a selective defect in the production of red blood cells and often results in chronic transfusion dependency. […] This pattern of response reflects an intrinsic defect in the receptor for SCF (c-kit) on the progenitor cell. In either case (abnormal production of SCF by the microenvironment or decreased stimulation of the hematopoietic progenitor by SCF) SCF overcomes the block to hematopoiesis which characterizes bone marrow failure syndromes such as DBA.

[2] = system: control marrow; assay: BFU-E culture of control marrow; assay type: cell-based, human; conditions: with EPO
Excerpt: as §1

[3] = system: peripheral blood mononuclear cells of normal donors; assay: BFU-E assay, peripheral blood of normal donors; assay type: cell-based; conditions: Homo sapiens, PBMC; in the presence of the three concentrations of HuSCF (10, 100, 1000 ng/ml); read-out: IC50 (fifty percent inhibitory concentration) of zidovudine for BFU-E
Method: Peripheral blood mononuclear cells were isolated from leukopaks and peripheral blood using ficoll-hypaque sedimentation followed by extensive washing with Hank's Balance Salt Solution (HBSS). Blood cells were enumerated and viability ascertained by trypan blue dye exclusion.
Assays for BFU-E were performed in a standard protocol using normal human bone marrow as the control. Heparinized blood was diluted with an equal volume of HBSS (GIBCO, Grand Island, N.Y.), layered over Ficol-Paque (Pharmacia, Piscataway, N.J.) and centrifuged at 400 g for 30 minutes at room temperature. Light density cells (s.g. <1.077) were collected and washed twice in HBSS. Cells were resuspended in Iscove's Medium with 10% Fetal Bovine Serum (GIBCO, Grand Island, N.Y.) at a concentration of 1×10^7/ml. […] Erythroid burst colonies were scored after 14 days of culture in a humidified atmosphere containing 5% CO2. Each assay was done in duplicate and colonies with >50 cells present on day 14 with hemoglobinization were scored as BFU-E.
The 50% inhibitory concentration for zidovudine was calculated by expressing the mean of four determinations of BFU-E for each level of zidovudine and huSCF as a percentage of control (no added zidovudine). […] The 50% inhibitory concentration was calculated by interpolation and the value used as the exponent for the base of 10. […]

[4] = system: human bone marrow; assay: Human bone marrow colony assay; assay type: cell-based; conditions: agar colony assay, factors alone or combined
Method: The cDNA of human SCF corresponding to amino acids 1–162 obtained by PCR reactions outlined in Example 3D, was expressed in COS-1 cells as described for the rat SCF in Example 4. COS-1 supernatants were assayed on human bone marrow as well as in the murine HPP-CFC and MC/9 assays. […] The culture conditions of the assay were as follows: human bone marrow from healthy volunteers was centrifuged over Ficoll-Hypaque gradients (Pharmacia) and cultured in 2.1% methyl cellulose, 30% fetal calf serum, 6×10^−5 M 2-mercaptoethanol, 2 mM glutamine, ISCOVE'S medium (GIBCO), 20 U/ml EPO, and 1×10^5 cells/ml for 14 days in a humidified atmosphere containing 7% O2, 10% CO2, and 83% N2. Only those colonies of 0.2 mm in size or larger are indicated.
Recombinant human SCF was tested in agar colony assays on human bone marrow in combination with other growth factors as described above.

[5] = system: KG-1; assay: KG-1 soft agar cloning assay; assay type: cell-based, human; conditions: 50 μl assayed (5 ng/ml)
Method: Another activity of recombinant human SCF is the ability to cause proliferation in soft agar of the human acute myelogenous leukemia (AML) cell line, KG-1 (ATCC CCL 246). COS-1 supernatants from transfected cells were tested in a KG-1 agar cloning assay [Koeffler et al., Science, 200, 1153–1154 (1978)] essentially as described except cells were plated at 3000/ml.

[6] = system: normal human bone marrow; assay: Human CFU-GM assay; assay type: cell-based; conditions: average of triplicate cultures; SCF = COS-1 supernatant 4 days after transfection
[7] = system: HIV; conditions: other studies; cited from earlier work
[8] = system: UT-7 cells; assay: UT-7 ^3H-thymidine uptake assay; assay type: cell-based, human; conditions: E. coli derived
Method: UT-7 cells are a human megakaryocyte, huGM-CSF responsive cell line obtained from John Adamson, New York Blood Center, New York, N.Y. UT-7 cells were cultured in Iscove's Modified Dulbecco's Medium, 10% FBS, 1× glutamine, 5 \g/ml huGM-CSF. Cells are passaged twice a week at 1×10^5 cells/ml.
Cells were washed twice in phosphate buffered saline (PBS) and resuspended in RPMI medium with 4% FBS and glutamine penicillin streptomycin (GPS) (Irvine Scientific Cat No. 9316 used at 1% volume per volume) at 4×10^4 cells/ml before use. Human SCF along with specific samples were added to 4000 cells/well in 96 well plates and were cultured for 72 hrs. 0.5 uCi/well of ^3H-Thymidine was then added to each plate, plates were harvested and counted 4 hours later.

[9] = molecular target: T1, SCF receptor (OCIM1 plasma membrane) (Homo sapiens, UniProt P10721); assay: SCF radioreceptor assay; assay type: binding; conditions: E. coli derived
T1 construct: endogenous in cells; host or cells: OCIM1 human erythroleukemic cells, plasma membrane preparation
Method: OCIM1 cells, [Papayannopoulou et al., Blood 72:1029–1038 (1988)] are a human erythroleukemic cell line expressing many human SCF receptors per cell. These cells are grown in Iscove's Modified Dulbecco's Medium, 10% FBS, and 1× glutamine and passaged 3 times a week to 1×10^5 cells/ml.
Preparation of the OCIM1 plasma membrane is as follows with all steps performed on ice.
First, 40 T175 flasks of cells were grown-up in OCIM1 culture medium, for a total of 1.9×10^9 […]. The conditioned medium and 1 mM Phenyl Methyl Sulfonyl Fluoride (PMSF) protease inhibitor, was spun down in 8×250 ml tubes at 1000 rpm for 10 minutes at 4° C. Cells were washed with PBS and repelleted in 4×50 ml centrifuge tubes at 1000 rpm for 10 minutes at 4° C. Cells were resuspended in 20 ml ice cold PBS with glucose sodium pyruvate (Gibco Cat #310-4287). The 20 ml cell solution was put into a pre-pressurized, pre-chilled (4° C.) “cell bomb” designed to lyse the cells. Cells were pressurized at 400–650 PSI for 10 minutes to establish equilibrium. When the pressure is released cell lysis occurs.
At this point the cells were checked for the percentage of cell lysis. 90% lysis was common. The cell suspension was resuspended in 80 mls sucrose buffer (0.25M sucrose, 10 mM Tris, 1 mM EDTA in double distilled (dd) H2O, filtered through a 0.45 u filter, pH 7.0) and divided between two 40 ml screwcap tubes. Tubes were spun at 5900 RPM for 10 minutes in a Beckman J2-21 centrifuge, JA-20 rotor at 4° C. The supernatants were saved and spun one more time as above to further remove any unwanted material. Supernatants were saved and distributed equally into 2 nalgene 40 ml centrifuge tubes. These supernatants were centrifuged at 16,000 RPM 4° C. for 30 min. in J2-21 centrifuge, JA-20 rotor. These supernatants were discarded being careful to save pellets. Each pellet was resuspended in sucrose buffer so there were 20 mls per tube in 4×36 ml plastic ultracentrifuge tubes. Using a 20 ml syringe and a large trochar, the solution was carefully underlayered in each tube with ice cold 36% sucrose solution (36.1 g sucrose/100 mls ddH2O), bringing the level of the liquid to within 2 mm of the top of the tube. Without disturbing the interface, each tube was carefully placed into each of […] titanium ultracentrifuge tubes. Tubes were centrifuged at 27,000 RPM, 4° C. for 75 minutes in an ultracentrifuge. These tubes were carefully removed from the rotor and from titanium buckets, placed in a rack with the 36% sucrose interface visible. The membraneous material at the interface was collected with a pasteur pipet and transfered into 2 clean nalgene 40 ml centrifuge tubes. Volume was brought up to 40 mls with ice cold sucrose buffer. Tubes were balanced and centrifuged as before at 5900 RPM in J2-21 centrifuge. […]

[10] = system: normal baboons; assay: In vivo activity in normal primates
[11] = system: dog with cyclic neutropenia; assay: Canine cyclic neutropenia; assay type: in vivo; conditions: rcanineSCF 100 mg/kg/day s.c. over several weeks
Method: Cyclic neutropenia, in particular, is a defect in the regulation of stem cell division since other lineages (e.g., platelet, erythrocyte and monocyte) are also effected. […] A typical dog with cyclic neutropenia was treated with rcanineSCF (recombinant canine SCF) at […] subcutaneously over several weeks. […] Thus, SCF is useful in treating a variety of bone marrow failure syndromes, either alone or in combination with other hematopoietic growth factors.

[12] = system: Lewis rats; assay: SCF and G-CSF in Lewis rats; assay type: in vivo, rat
Method: Quantitative peripheral blood and bone marrow differentials were performed at various timepoints as previously described [Hulse, Acta Haematol. […] J. Physiol. […] Histologic examination of the spleen was performed with Bouin's-fixed paraffin-embedded sections stained with hematoxylin-and-eosin as well as by the Giemsa method. The numbers of normoblasts, megakaryocytes, and mast cells per 400× or 1000× high power field (HPF) in the spleen was quantitated by counting the number of each cell type in randomly selected fields of the red pulp. Increases in circulating numbers of neutrophils over extended time periods were when so stated calculated by planimetry as previously described. […] Data is expressed as the mean plus-or-minus one standard deviation and statistical analysis is by the unpaired t-test.

[13] = 6 hours after a single injection

For “SCF: stem cell factor added to DBA and control marrow cultures; form not specified”, the “increase in the frequency of BFU-E” value ([1]; majority of patients, ≤10 ng/ml SCF, with EPO) was “approximately 3 fold”, the “SCF concentration giving an increase in the frequency of BFU-E” value ([1]; other group of patients with DBA) was “greater than or equal to 50 ng/ml” and the “increase in frequency of BFU-E” value [2] was 1.5 fold.

Work on `Cc1cn([C@H]2C[C@H](N=[N+]=[N-])[C@@H](CO)O2)c(=O)[nH]c1=O` [zidovudine] yielded an IC50 [3] of 2.65 to 1380 µM.

In the case of “GM-CSF: human granulocyte-macrophage colony stimulating factor”, the “Colony #/10^5 cells (14 Days)” value [4] is reported as 14 ± 2, the “Colony #/3000 Cells ± SD” value [5] is reported as 14 ± 5 and the “Colony #/100,000 cells (±SEM)” value [6] is reported as 7 ± 1. The “replication of HIV in partially purified primary peripheral blood monocytes” value [7] was “significantly increase replication of HIV”.

With “Human SCF^1-165: recombinant human [Met^−1]SCF^1-165 expressed in E. coli” the “stimulation of UT-7 proliferation, comparison” value [8] was “equally active”, the “competition with binding of human [^125I][Met^−1]SCF^1-164” value [9] was “compete equally well” and the “in vivo biological activity in primates compared with human SCF^1-164” value [10] was “same in vivo biological activity”.

B1: G-CSF: human granulocyte colony-stimulating factor (protein, UniProt P09919 31-207, looked up)
Granulocyte …: TPLGPASSLPQSFLLKCLEQVRKIQGDGAALQEKLVSECATYKLCHPEELVLLGHSLGIPWAPLSSCPSQALQLAGCLSQLHSGLFLYQGLLQALEGISPELGPTLDTLQLDVADFATTIWQQMEELGMAPALQPTQGAMPAFASAFQRRAGGVLVASHLQSFLEVSYRVLRHLAQP
In the case of B1, the “Colony #/10^5 cells (14 Days)” value [4] is reported as 32 ± 3, the neutrophil cycling [11] is reported as “increases the frequency and amplitude of neutrophil cycling, but does not eliminate it” and the “Colony #/100,000 cells (±SEM)” value [6] is reported as 24 ± 1. The “time of peak neutrophilia after a single injection” value ([12]; 25 ug/rat i.v.) was 12 h, the “decrease in mature marrow neutrophils vs carrier control” value [12, 13] was 44% and the mature marrow neutrophils [12, 13] was 5.55±0.5 ×10^6 PMN/humerus. For the same molecule, the “myeloblasts and promyelocytes in marrow vs carrier controls” value ([12]; 6 hours after single injection) was “significant increase in myeloblasts and promyelocytes”, the “mature neutrophils in bone marrow” value ([12]; 24 hours after daily injection for one week) was 28.5±2.1 ×10^6 PMN/humerus and the circulating neutrophils ([12]; daily 25 ug/rat for one week, 24 hours after the last injection) was 10.6±3.6 ×10^3 PMN/mm^3. The morbidity and thrombocytopenia ([12]; daily for one week) was “None of the rats”, the circulating neutrophils ([12]; daily for one week, 12 hours after the last (seventh) injection) was 25.3±0.3 ×10^3 PMN/mm^3 and the “number of megakaryocytes in the spleen” value ([12]; per 400× HPF, daily for one week) was 2.0±1.1. For the same molecule, the “number of normoblasts in the spleen” value ([12]; per 1,000× HPF, daily for one week) was 0±0.
